Data from patent US20220289861A1 (ONCORESPONSE, published 2022).

Molecular target: T1, His-tagged recombinant human CD163 (R&D Systems, No. 1607-CD-050) (human, UniProt Q86VB7 42-1050, limits assumed)
T1 construct: Bought protein; also called huCD163; not shown: His tag
Experiment: ELISA on plate-coated recombinant human CD163 (5 ug/mL), anti-human IgG F(ab')2 HRP
Experimental: AB101 binding to His-tagged recombinant human CD163 (R&D Systems, No. 1607-CD-050) and recombinant murine CD163 (R&D Systems, No. 7435-CD-050) proteins was determined using ELISA. Recombinant proteins were diluted in PBS to 5 μg/mL and added to 384-well High binding ELISA plates (Greiner Bio-One, No. 781061) at 25 μL per well and incubated at 4° C. overnight. The plates were washed three times with PBS, using the BioTek ELx405 Select microplate washer (wash program ELISA_384_PBS_3×_wash) and then blocked with 90 μL/well of blocking buffer (2% nonfat, dry milk/PBS+0.05% Tween 20) for 1 hr at RT.
After blocking, 25 μL per well of primary antibodies were added to the plates and incubated for 1 hr at room temp. The test antibody was AB101; the control anti-huCD163 antibody was a commercially available antibody in murine IgG1 framework (R&D Systems, #MAB1607); the isotype controls were a proprietary mAb, in human IgG1, human FcNull, and murine IgG1 frameworks, with known specificity. After primary antibody binding, plates were washed three times with PBS using the EL405x (wash program ELISA_384_PBS_3×_wash). […] After development, the reaction was stopped by adding 25 μL per well of 0.3 M HCl and plates were read using the SpectraMax M5e instrument at 450 nm.

T1 sequence (Q86VB7 42-1050 limits assumed): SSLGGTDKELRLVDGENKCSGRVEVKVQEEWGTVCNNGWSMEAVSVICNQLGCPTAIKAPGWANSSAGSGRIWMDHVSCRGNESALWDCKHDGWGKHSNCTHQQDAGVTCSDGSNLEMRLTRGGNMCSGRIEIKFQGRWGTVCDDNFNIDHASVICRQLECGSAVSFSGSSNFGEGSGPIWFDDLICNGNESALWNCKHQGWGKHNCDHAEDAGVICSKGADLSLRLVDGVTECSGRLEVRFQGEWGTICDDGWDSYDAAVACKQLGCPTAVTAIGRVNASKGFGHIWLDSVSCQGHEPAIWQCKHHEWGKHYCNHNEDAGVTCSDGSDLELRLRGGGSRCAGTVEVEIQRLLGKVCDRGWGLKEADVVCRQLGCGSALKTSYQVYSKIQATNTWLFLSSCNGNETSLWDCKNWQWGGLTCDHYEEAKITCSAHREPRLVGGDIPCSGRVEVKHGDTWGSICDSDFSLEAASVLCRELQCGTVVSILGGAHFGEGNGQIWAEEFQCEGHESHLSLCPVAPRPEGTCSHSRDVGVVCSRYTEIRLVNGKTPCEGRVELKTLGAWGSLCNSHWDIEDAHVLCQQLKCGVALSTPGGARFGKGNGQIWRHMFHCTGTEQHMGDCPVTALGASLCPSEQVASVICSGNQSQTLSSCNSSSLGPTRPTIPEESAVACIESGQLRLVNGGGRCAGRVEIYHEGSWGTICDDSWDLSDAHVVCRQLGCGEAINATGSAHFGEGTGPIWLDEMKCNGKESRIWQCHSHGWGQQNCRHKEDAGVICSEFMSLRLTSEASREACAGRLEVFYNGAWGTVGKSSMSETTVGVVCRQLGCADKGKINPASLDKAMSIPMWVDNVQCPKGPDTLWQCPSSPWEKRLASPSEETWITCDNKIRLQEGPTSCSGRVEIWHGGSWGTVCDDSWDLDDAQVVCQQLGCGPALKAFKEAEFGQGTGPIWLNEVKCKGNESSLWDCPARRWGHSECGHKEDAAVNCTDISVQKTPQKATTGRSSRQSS

B1: AB102 (antibody, human IgG1, kappa)
heavy: EVQLVESGGGVVQPGRSLRLSCAASGFTFSSYAMHWVRQAPGKGLEWVAVISYDGSNKYYADSVKGRFTISRDNSKNTLYLQMNSLRAEDTAVYYCARENVRPYYDFWSGYYSEYYYYGMDVWGQGTTVTVSSASTKGPSVFPLAPSSKSTSGGTAALGCLVKDYFPEPVTVSWNSGALTSGVHTFPAVLQSSGLYSLSSVVTVPSSSLGTQTYICNVNHKPSNTKVDKRVEPKSCDKTHTCPPCPAPEFEGGPSVFLFPPKPKDTLMISRTPEVTCVVVDVSHEDPEVKFNWYVDGVEVHNAKTKPREEQYNSTYRVVSVLTVLHQDWLNGKEYKCKVSNKALPASIEKTISKAKGQPREPQVYTLPPSREEMTKNQVSLTCLVKGFYPSDIAVEWESNGQPENNYKTTPPVLDSDGSFFLYSKLTVDKSRWQQGNVFSCSVMHEALHNHYTQKSLSLSPGK
light: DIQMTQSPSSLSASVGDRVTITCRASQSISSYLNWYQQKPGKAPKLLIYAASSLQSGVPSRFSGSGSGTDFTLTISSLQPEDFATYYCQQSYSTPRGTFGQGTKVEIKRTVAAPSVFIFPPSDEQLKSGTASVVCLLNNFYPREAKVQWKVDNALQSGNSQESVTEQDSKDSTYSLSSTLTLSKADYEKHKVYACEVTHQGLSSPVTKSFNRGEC
notes: Biotinylated for the PFA immunoprecipitation and AF647-conjugated for flow cytometry; also called AB101 FcNull antibody; AB101 in FcNull framework
EC50 (read off the curve): ~1 nM
